Data as given in patent US20230374534A1 (INDUSTRY ACADEMIC COOPERATION FOUNDATION GYEONGSANG …, published 2023).

Key:
[1] = target: T1, CBF1-Myc (from CBF1-Myc^OE Arabidopsis plants) (Arabidopsis thaliana, UniProt P93835 1-213); experiment: anti-Myc immunoprecipitation from CBF1-Myc^OE plants (4 °C, 6 h), then MALDI-TOF/TOF mass spectrometry
T1 construct: Overexpressed in Arabidopsis under the CaMV 35S promoter; The tag is placed C-terminal because of the name CBF1-Myc; also called CBF-Myc; CBFs-Myc; not shown: Myc tag
Protocol: To identify the interacting partners of CBF1 in Arabidopsis, total proteins (100 mg) were extracted from 2-week-old CBF1-Myc^OE seedlings exposed to 4° C. for 6 h, and immunoprecipitated using an anti-Myc agarose (Sigma-Aldrich, St. Louis, MO, USA). The CBF1-My c-interacting proteins were washed three times at 4° C. with a buffer containing 50 mM Tris-HCl (pH 7.5), 150 mM NaCl, 1 mM EDTA, 1 mM DTT, and 0.1% NP40. The purified proteins were mixed with SDS-PAGE loading dye, heated at 90° C. for 5 min, and separated by SDS-PAGE. Proteins were identified by matrix assisted laser desorption/ionization-time of flight (MALDI-TOF)/TOF-mass spectrometry.

[2] = target: T2, YC-CBF1 (CBF1 fused to the C-terminal fragment of YFP) (Arabidopsis thaliana, UniProt P93835 1-213); experiment: BiFC in Nicotiana benthamiana leaves at 4 °C (FIG. 6D)
T2 construct: BiFC construct expressed in Nicotiana benthamiana leaves; also called YC-CBFs; not shown: C-terminal fragment of YFP (YC)
Protocol: Interaction between Trx-h2 and CBFs under specific conditions was analyzed using the BiFC assay. Trx-h2 and CBFs were cloned individually into the gateway BiFC-binary vector, pDONR221, to generate pDONR221: Trx-h2 and pDONR221: CBF plasmids, respectively. The Trx-h2-YN plasmid was generated by fusing Trx-h2 with the N-terminal fragment of YFP (YN), while the YC-CBF plasmids were constructed by fusing each of the three CBFs with the C-terminal fragment of YFP (YC). These plasmids were introduced into A. tumefaciens strain GV3101, and the transformed cells were used to infiltrate the leaves of 4-week-old N. benthamiana plants. These plants were incubated at 26° C. for 2 days and then exposed to 4° C. for 6 h. Fluorescence signals generated by YFP were analyzed under a confocal microscope using the FV10-ASW 3.1 software.

T1 sequence (P93835 whole entry): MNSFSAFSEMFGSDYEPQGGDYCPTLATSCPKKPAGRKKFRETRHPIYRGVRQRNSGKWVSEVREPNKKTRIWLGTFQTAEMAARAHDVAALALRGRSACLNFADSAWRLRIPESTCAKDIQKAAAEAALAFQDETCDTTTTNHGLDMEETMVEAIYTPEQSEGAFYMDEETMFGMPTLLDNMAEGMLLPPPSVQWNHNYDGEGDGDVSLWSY
T2 sequence (P93835 whole entry, the tested form may be a part): as the sequence (P93835 whole entry) above

Row | binding result [1] | binding result [2] | Binder
1 | binds |  | Trx-h2, endogenous protein in Arabidopsis plants (enzyme, myristoylated at Gly2 at 22 °C; demyristoylated at 4 °C, Native Trx-h2 that co-precipitated with CBF-Myc from plant extracts (IP/mass spectrometry and Co-IP); also called thioredoxin h2) GGALSTVFGSGEDATAAGTESEPSRVLKFSSSARWQLHFNEIKESNKLLVVDFSASWCGPCRMIEPAIHAMADKFNDVDFVKLDVDELPDVAKEFNVTAMPTFVLVKRGKEIERIIGAKKDELEKKVSKLRA
2 |  | no binding | Trx-h3 (control) in the BiFC assay (enzyme, Arabidopsis, UniProt Q42403 2-118, looked up, BiFC control; The YFP fragment fused to it is not described) AAEGEVIACHTVEDWTEKLKAANESKKLIVIDFTATWCPPCRFIAPVFADLAKKHLDVVFFKVDVDELNTVAEEFKVQAMPTFIFMKEGEIKETVVGAAKEEIIANLEKHKTVVAAA
